Measured values from a protein production outcome set (Wang et al. 2014).

Experiment: label from the status in PepcDB records
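Also: failed if final PepcDB status was selected cloned or expressed and not failed if soluble or beyond.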

MTNNEYTDISNKETDVSPANIEQLKSVSMIWFVPFVALLIGAWMIYYQLSNEGPVITIAFDSAEGMEIGKTKIKSYNVDIGEVSNIVLNENADGVIVTARMTKNAEKLLNKNSDFWLVSPEISHTGISGLSTLISGVYIEFYPSSIHEEEVDELTSEFIALKDPPVTPPGAPGLHLTLNSNDQFAYSKGDPIIYKGLTVGQFEHIHFNFEERVVYYNAFIKAPYHQLVTTNTKFWDVSGLRMDLTADGLSIQTGNIETMLTNGVTFDVPKGMENGEEITERSYFDIYANYKEADDERYKYSVEYIVLVSNTIRGLSVGAPVEYRGVLIGHVKSINLLAQRNSDRPQIFDEDIKIPILISLQPGRVGLPDNEMGVSLMKQQHQLWIKDGLRASLKTGSLLTGSLFIDFQHYSDLNNEEENTQRTDFENSQYGEYTIIPSVDDEFSQITAKASQFIDNLNALPLEKISGNTNELITEFTQTAKSFQSVSDNLSGVLDGVNQQQLTQELKTTLQSYTKLSKDLSAGSKGYEDLRQTLSALTKVMNELQPLLNQLKHQPNGLIFESGKVDAIEPKKYTPNKKAE
protein production: failed

MALKATIYKATVNVADLDRNQFLDASLTLARHPSETQERMMLRLLAWLKYADERLQFTRGLCADDEPEAWLRNDHLGIDLWIELGLPDERRIKKACTQAAEVALFTYNSRAAQIWWQQNQSKCVQFANLSVWYLDDEQLAKVSAFADRTMTLQATIQDGVIWLSDDKNNLEVNLTAWQQPS
protein production: not failed

MTYFFETYGCQMNQAESSSMEQILLEKGWTNSSDAEHCDLLIINTCSVRITAENRVLGRLGHFSGLKKKRKFFVLLIGCMAERLYTEIQKEFPLIDYVVGMFERNLLPQIFDEIKARLKNDNYMAEFTHDNIEEKPVSGYYFAPLSHSPKSFQSYVPIMNGCNNFCTYCIVPYVRGREVSRPVNEILQEITELSSRGVREITLLGQNVNSYKGEDGEGRLIDFPKLLTLIAREADKTDMIRWIRFMSSHPKDMSDALIDTIAAEKRLCKLVHLPVQHGSDTILKRMNRVYTIEHYKNRIKRLKETIPDIALSTDILMGFPGETEDDVKATLDLMQEIEFDSAFMYHYNPREGTKAFNYPDRIPEEVKIERLGRVIDLQLKITAKKMKAKLGKKVDILVESHSRNERSELFGHTEQGEMTVIQGNPPESLIGNFAHAELKELKGKTFRANLN
protein production: failed

MSMLKRTLVLLGDTPSSLAARAYAFRLVQQTGTDLTGLAGVDLGEIEAPMLGGIGMSAYQTQLQTELKRQADATRERLQAAFSDECRSRSIACAALSFEGDAADGFRLATETRDLAIAGHDTGFGGSQEPLSAMIAKLVVRTPRPLIVCPDELPAGDAVLIAYDGSLPAMRALQVFALLGLGDGKQICVLAIDRDEAAAVRKANAAAEFLKIHGHAAQAVPSSSGDDPADLIRSAVAERNIGTVVMGAYGNRGFREALFGSTTDALVDTPPCALFLYH
protein production: failed

MSLFRQGSQFMIIGALQLAVDCGIFIAATAAGMPAVPANLLGRIGGAMLGFWLNGRYTFAQQGDARLGWRRFRRFAAMWLTLTLISTWLLSTTVDLLGLRQAWLAKPLVEGGLAIVSFFLGRHVVYR
protein production: failed

MAKKWQQRAALRRKRISFHRSTDTTSSSTAAEKGCFVVYTSDRIRFAFPISYLSNSVIQELLKISEEEFGIPTEGPITLPFDSVFLEYLIRLVQRRMDGDTEKALITSISSTRCSLPCSFQLQEHSSTRLVF
protein production: failed

MSLRVILFDLDGTLIDSAKDIALALEKTLKELGLEEYYPDNVTKYIGGGVRALLEKVLKDKFREEYVEVFRKHYLENPVVYTKPYPEIPYTLEALKSKGFKLAVVSNKLEELSKKILDILNLSGYFDLIVGGDTFGEKKPSPTPVLKTLEILGEEPEKALIVGDTDADIEAGKRAGTKTALALWGYVKLNSQIPDFTLSRPSDLVKLMDNHIVEFEGHHHHHH
protein production: not failed

TSITPSSQDICRICHCEGDDESPLITPCHCTGSLHFVHQACLQQWIKSSDTRCCELCKYEFIMETKL
protein production: not failed

MNGYRRKNMRLINTTSSHQHLVKNQLKHTDATLVETYSAGNTDVIFTQAPKHYELLISNKHRAIKDNEIETIREFFLKRKINKNIILLDQLKTLHTANLIEISIPIAD
protein production: failed

MKVELTAIEARVIGCLIEKEVTTPDQYPLSLNALTNASNQKSNREPVMALSESDVLDAVDALIERRLVSDESAFNSRVSKYQHRFCNTEFGDLKLSEQEKGIICCMLLRGAQTPGEIRTRTNRLATFHDVKEVEAVLEHLASEEKGPLVVKLPREAGKRESRYMHLFCGEVDVSAMAAAVPATSSSSVRIAQLEQEVAELREELDALKAQVESLLS
protein production: not failed

NANLDPKTRVLEHRLLAASSAIAEKLGVSAGDEVLLIRRLRSTGDIPVAILENYLPPAFNDVSLDELEKGGLYDALRSRGVVLKIANQKIGARRAVGEESTLLDIEDGGPLLTVERVALDNSGQVIELGSHCYRPDMYN
protein production: failed

MKPQLSWKVGGQQGEGIESTGEIFATAMNRKGYYLYGYRHFSSRIKGGHTNNKIRVSTTPVHAISDDLDILIAFDQETIDVNHHEMREDSIILADAKAKPVKPEGCHAQLIELPFTATAKELGTALMKNMVAIGATSALMNLNTNTFEELITNMFSKKGDKVVEVNIQALNEGYQLMQSRLPEIDGDFELESTDALPHLYMIGNDAIGLGAIAAGSQFMAAYPITPASEVMEYMIANISKVNGAVIQTEDEIAAVTMAIGANYGGVRAFTASAGPGLSLMMEAIGLSGMTETPLVIINTQRGGPSTGLPTKQEQSDLMQMIYGTHGDIPKIVVAPTDAEDAFYLTMEAFNLAEQYQCPVIVLSDLQLSLGKQTVEKLDYNRIEIKRGEIIQSDIEREEDDKGYFKRYALTSNGVSPRPIPGVKGGIHHITGVEHNEEGKPSESASNRQQQMEKRMRKIEQLLIESPVEANLQHEDADILYIGFISTKGAIQEGSNRLNQQGIKVNTIQIRQLHPFPTSVIQDAVNKAKKVVVVEHNYQGQLASIIKMNVNIHDKIENYTKYDGTPFLPHEIEEKGKIIATEIKEMV
protein production: not failed

MDGDFRTSFVREPAGLRPYPALVLNADYRPLSYYPLSLWPWQEAIKAAFLDRVSIVAEYDQVVRSQRAALRIPSVVVLKEFVSPQKRVAFTRFNLFLRDEFRCQYCGAKGDLTFDHVVPRARGGVTSWQNVVAACSPCNLHKGSKTLKQAGMRLARIPREPTPAEMQRHGQRFPPNHLHDSWLDYLYWDAELEALEHHHHHH
protein production: failed

MPYLLLTLAALFWGGNYVVGHVLVQGVDPILMTEARWALTALLLGLLYRRQIAGSRRLLRANAPAVVVLTLCGQVSFPLTLYIGLQTTSALNAAIYMSATPSMVLLINRLFFRDPVSGRNWLGVAFSTLGVMILLFQGNPLHAASLHTFAIGDLWAMGSALSWALYCSLLRLKDRRIPANGFVAVSSLLGALILVPIVIFWLMRHPAQDWAAWREPFFLSGLAYLVIFPSWLAYLFWNKGIATIGATRGEIYTHIIPLSGGVLSILFLHTQPHAWHLFSALFIMVGIGICSLEKRQAASIRLRD
protein production: failed

MKVYVVVPTYNESDNIVALMEKILAQRDNIHVLVVDDNSPDGTGEIAARMSSDNPRIHVLRRSGKMGLGSAYCDGFRVALRDGADFIIEMDADFSHDPATIPALLAATDKYDVVVGSRYLNGVSVVNWPIRRLMLSYFASVYTRFVTGLALRDCTSGFKCFRRRVIESVDLDTIRSDGYSFQIEMNYRCVERGFRVGEIPIIFIDRHAGSSKMSKKIVREAVLMVWKLKLGSLVKKLTRRGDRHAALEHHHHHH
protein production: not failed

MSDKYYRSAYMNVDLNAVASNFKVFSTLHPNKTVMAVVKANAYGLGSVKVARHLMENGATFFAVATLDEAIELRMHGITAKILVLGVLPAKDIDKAIQHRVALTVPSKQWLKEAIKNISGEQEKKLWLHIKLDTGMGRLGIKDTKTYQEVIEIIQQYEQLVFEGVFTHFACADEPGDMTTEQYQRFKDMVNEAIKPEYIHCQNSAGSLLMDCQFCNAIRPGISLYGYYPSEYVQQKVKVHLKPSVQLIANVVQTKTLQAGESVSYGATYTATDPTTIALLPIGYADGYLRIMQGSFVNVNGHQCEVIGRVCMDQTIVKVPDQVKAGDSVILIDNHRESPQSVEVVAEKQHTINYEVLCNLSRRLPRIYHDGDQRFVTNELLK
protein production: not failed

ILFSVVIGSFTPAHPIASETNPKVENAKDAPEIEPFSEQAVEELHRQKKPLFIYFSADWCLTCKVNEKMAIDRDSTRQAFRQKGIVTLHGDWTNGDPEITHFLSKMHRSGIPLYLYYPADGEIQI
protein production: failed

MKKEYGYPTLKVICQASAGNETAIREILKFYDAYICKLCLRPFYHFESGKITMQVDEELKGQIHIEMMKAILKFEIRVK
protein production: failed

MSWWQDMDQRGGVSSPSGALASAEPAPASVTLAELLHLVQKGQEVPGLEKRHITATHGEPTASLLPRRPKPWEDAGSAASPCTIALDTRTQPPTIEERSRGSPAAQLDGGPRVS
protein production: failed

MVNTNLEELRTQVDQLNIDLLELISKRANLVQEIGKIKGTQGSLRFDPLREREMLNTILAANEGPFEDSTVQKLFKEIFKAGLELQEEDHSKALLVSRKNKKEDTIVTVKGLPIGNGEPVFVFGPCSVESYEQVAAVAESIKAKGLKLIRGGAFKPRTSPYDFQGLGLEGLKILKRVSDEYGLGVISEIVTPADIEVALDYVDVIQIGARNMQNFELLKAAGRVDKPILLKRGLSATIEEFIGAAEYIMSQGNGKIILCERGIRTYEKATRNTLDISAVPILKKETHLPVMVDVTHSTGRKDLLLPCAKAALAIEADGVMAEVHPDPAVALSDSAQQMDIPEFEEFWNAILASNLVPHKIK
protein production: not failed

MEILYIKGDATAPIGSGVKVITHICNDIGGWGKGFVLALSKKWKMPEEAYRQWYKSQEEFTLGAVQFVNVENKLYVANMIGQHGIYKDSKGLPPIRYDAVRQCLKEVALFTIAHKASVHMPRIGCGLAGGKWELMEQIIKEELITKEIAVTVYDL
protein production: not failed

MAGFISNFFGVGDSDSQYEEPTEASQAAAPTESATNTRSTPKVVPMQGGKSVNSKIALFEPKIYSDVKEIATQLLKNQAVIINFDHVDDEMARRIVDFLTGTVFAINGEIERIGDEIFLCIPENYEVSGSTTSQFDTSKLLEHHHHHH
protein production: not failed

MSEFMQRFADLRDRKAYAEIVDALPYVKLMGTSMAEDEQGELRFELPFLQRNVGNTTLPALHGGLIGGFMESAAMIHLMWNRESLEAPKIVDFSLDYLRPGRPQTLFAQCEITKQGKRVAHVLIEAWQDDRSKPVAVARAHFLLTNLEHHHHHH
protein production: not failed

MKMKYDPGETWRSIYRENKRCDGFNNYYDDESASYQFSENPYVWKDGKERCRTIGMQNDWTALDIGAGAGSMTVPLAKICKRVTAVEPSKTMARILSSNLKKAGLDNVQIINSRWEDAPEEIERHDIIIAAYSLMIDDIEKAVLRMNSLARKKVYLYWFAGVPYWERHCLDLWSTIYGYEYTPSPKVDLIFAVLYKHGIYPDVVNLDSERPPYERVMTTEQAMDELKDSLHLKGNDEWDELLMRYIEDNYEKKEDGCWSRGGSSRMRISWSPQP
protein production: failed

MYQVAICDPIHAKGIQILEAQKDIVLHDYSKCPKKELLEKLTPMDALITRSMTPITSDFLKPLTHLKSIVRAGVGVDNIDLESCSQKGIVVMNIPTANTIAAVELTMAHLINAVRSFPCANDQIKHQRLWKREDWYGTELKNKKLGIIGFGNIGSRVGIRAKAFEMEVLAYDPYIPSSKATDLGVIYTKNFEDILQCDMITIHTPKNKETINMIGAKEIERMKKGVILLNCARGGLYNEDALYEALETKKVRWLGIDVFSKEPGIHNKLLDLPNVYATPHIGANTLESQEEISKQAAQGVMESLRGSSHPHALNLPMQAFDASAKAYLNLAQKLGYFSSQIHKGVCQKIELSLCGEINQFKDALVAFMLVGVLKPVVGDKINYINAPFVAKERGIEIKVSLKESASPYKNMLSLTLNAANGTISVSGTVFEEDILKLTEIDGFHIDIEPKGKMLLFRNTDIPGVIGSVGNAFARHGINIADFRLGRNTQKEALALIIVDEEVSLEVLEELKNIPACLSVHYVVI
protein production: failed
